Measurements taken from the supplement of paper PMC9112550, “Optimization of the antimicrobial peptide Bac7 by deep mutational scanning” (BMC Biology, 2022).

System: Escherichia coli TOP10
Assay: shrunken log2 fold change of peptide-encoding DNA abundance (4.5 h post-induction vs induction); higher = less antimicrobial activity (less host growth inhibition)
Conditions: time post-induction: 4.5 h; library: site-saturation at positions 5, 18, 19, 20
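Also: peptides expressed intracellularly from a pBAD plasmid library in pooled LB shake-flask culture, induced with 0.3% L-arabinose, DNA abundance read by NGS, three biological replicates, DESeq2 with apeglm shrinkage.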

Sequence | shrunken log2 fold change
RRIRHRPPRLPRPRPRPEPKPRP | -0.0206
RRIRDRPPRLPRPRPRPLSDPRP | 0.125
RRIRPRPPRLPRPRPRPMKYPRP | -0.157
RRIRFRPPRLPRPRPRPSACPRP | 0.0977
RRIRMRPPRLPRPRPRPFINPRP | -0.278
RRIRPRPPRLPRPRPRPRRCPRP | 0.388
RRIRSRPPRLPRPRPRPIKNPRP | -0.399
RRIRDRPPRLPRPRPRPLGDPRP | 0.0385
RRIRNRPPRLPRPRPRPNSIPRP | -0.728
RRIRQRPPRLPRPRPRPKSVPRP | -0.0026
RRIRVRPPRLPRPRPRPQCCPRP | -0.185
RRIRYRPPRLPRPRPRPGYVPRP | -1.05
RRIRNRPPRLPRPRPRPDLAPRP | 0.02
RRIRHRPPRLPRPRPRPPRVPRP | 0.356
RRIRSRPPRLPRPRPRPFPFPRP | -0.187
RRIRERPPRLPRPRPRPKVLPRP | 0.0059
RRIRIRPPRLPRPRPRPLNVPRP | -1.23
RRIRQRPPRLPRPRPRPWKPPRP | -0.00884
RRIRHRPPRLPRPRPRPQNCPRP | 0.0145
RRIRYRPPRLPRPRPRPDKRPRP | -0.168
RRIRPRPPRLPRPRPRPYVTPRP | -0.239
RRIRWRPPRLPRPRPRPSSCPRP | -0.0941
RRIRRRPPRLPRPRPRPKYCPRP | 0.0144
RRIRKRPPRLPRPRPRPMAEPRP | 0.208
RRIRFRPPRLPRPRPRPPRYPRP | 0.246

Sequence | shrunken log2 fold change
RRIRWRPPRLPRPRPRPAVGPRP | 0.229
RRIRPRPPRLPRPRPRPGSIPRP | -0.261
RRIRWRPPRLPRPRPRPKCQPRP | 0.136
RRIRHRPPRLPRPRPRPGGVPRP | 0.237
RRIRSRPPRLPRPRPRPVLYPRP | 1.03
RRIRFRPPRLPRPRPRPANIPRP | -0.0774
RRIRQRPPRLPRPRPRPQRPPRP | 0.0996
RRIRYRPPRLPRPRPRPHHWPRP | -0.892
RRIRDRPPRLPRPRPRPIGEPRP | -0.00228
RRIRARPPRLPRPRPRPQQTPRP | 0.141
RRIRFRPPRLPRPRPRPEMQPRP | 0.0943
RRIRVRPPRLPRPRPRPWHNPRP | -0.49
RRIRFRPPRLPRPRPRPRNSPRP | 0.168
RRIRSRPPRLPRPRPRPIILPRP | -0.617
RRIRCRPPRLPRPRPRPNIHPRP | -0.607
RRIRPRPPRLPRPRPRPYKEPRP | -0.382
RRIRCRPPRLPRPRPRPMMSPRP | -0.0652
RRIRQRPPRLPRPRPRPNPQPRP | 0.129
RRIRTRPPRLPRPRPRPRDPPRP | 0.047
RRIRSRPPRLPRPRPRPKKCPRP | -0.0782
RRIRGRPPRLPRPRPRPDGNPRP | 0.276
RRIRARPPRLPRPRPRPVHFPRP | 0.396
RRIRGRPPRLPRPRPRPPITPRP | 0.0357
RRIRHRPPRLPRPRPRPRPKPRP | -0.0808
RRIRNRPPRLPRPRPRPHLKPRP | -0.875

Sequence | shrunken log2 fold change
RRIRWRPPRLPRPRPRPACFPRP | 0.513
RRIRYRPPRLPRPRPRPIFAPRP | 0.159
RRIRSRPPRLPRPRPRPRTWPRP | 0.0747
RRIRWRPPRLPRPRPRPKWCPRP | -0.0668
RRIRNRPPRLPRPRPRPWLTPRP | -0.0905
RRIRTRPPRLPRPRPRPCVLPRP | 0.0134
RRIRDRPPRLPRPRPRPIDKPRP | -0.0708
RRIRVRPPRLPRPRPRPQTNPRP | -0.0562
RRIRWRPPRLPRPRPRPIEYPRP | -0.224
RRIRTRPPRLPRPRPRPHACPRP | 0.158
RRIRCRPPRLPRPRPRPPIMPRP | -0.0556
RRIRQRPPRLPRPRPRPAVCPRP | -0.197
RRIRGRPPRLPRPRPRPQVAPRP | 0.34
RRIRRRPPRLPRPRPRPKIYPRP | -0.127
RRIRIRPPRLPRPRPRPLGKPRP | -0.248
RRIRERPPRLPRPRPRPKFVPRP | -0.287
RRIRVRPPRLPRPRPRPRQEPRP | -0.0401
RRIRQRPPRLPRPRPRPPWNPRP | 0.0241
RRIRARPPRLPRPRPRPDPRPRP | 0.254
RRIRYRPPRLPRPRPRPGINPRP | -0.227
RRIRNRPPRLPRPRPRPAPEPRP | 0.948
RRIRVRPPRLPRPRPRPKSSPRP | -0.0704
RRIRTRPPRLPRPRPRPNIHPRP | -0.586
RRIRTRPPRLPRPRPRPRLCPRP | 0.317
RRIRKRPPRLPRPRPRPNKWPRP | -0.0156

Sequence | shrunken log2 fold change
RRIRHRPPRLPRPRPRPKPFPRP | 0.0272
RRIRWRPPRLPRPRPRPENPPRP | -0.0117
RRIRSRPPRLPRPRPRPPNQPRP | 0.134
RRIRMRPPRLPRPRPRPLESPRP | 2.66
RRIRDRPPRLPRPRPRPQMDPRP | -0.0397
RRIRNRPPRLPRPRPRPCNHPRP | -0.298
RRIRGRPPRLPRPRPRPQSIPRP | 0.108
RRIRVRPPRLPRPRPRPCGAPRP | 0.279
RRIRHRPPRLPRPRPRPHLHPRP | -0.513
RRIRNRPPRLPRPRPRPKNVPRP | -0.267
RRIRMRPPRLPRPRPRPNKHPRP | -0.158
RRIRARPPRLPRPRPRPCMDPRP | 0.0143
RRIRTRPPRLPRPRPRPVMVPRP | -0.0537
RRIRWRPPRLPRPRPRPAIDPRP | 0.294
RRIRTRPPRLPRPRPRPPMQPRP | 0.0806
RRIRNRPPRLPRPRPRPQGPPRP | 0.0355
RRIRDRPPRLPRPRPRPFHEPRP | -0.048
RRIRTRPPRLPRPRPRPRNDPRP | -0.227
RRIRQRPPRLPRPRPRPMMCPRP | -0.0115
RRIRWRPPRLPRPRPRPHRPPRP | -0.135
RRIRKRPPRLPRPRPRPYWWPRP | -0.454
RRIRGRPPRLPRPRPRPSLNPRP | 0.105
RRIRTRPPRLPRPRPRPFDLPRP | -0.29
RRIRCRPPRLPRPRPRPWNGPRP | -0.0552
RRIRFRPPRLPRPRPRPQQPPRP | -0.00359

Sequence | shrunken log2 fold change
RRIRDRPPRLPRPRPRPGVTPRP | 0.596
RRIRHRPPRLPRPRPRPLQHPRP | 0.0675
RRIRIRPPRLPRPRPRPEETPRP | -0.00208
RRIRSRPPRLPRPRPRPPYFPRP | -0.0285
RRIRDRPPRLPRPRPRPDFMPRP | 0.161
RRIRMRPPRLPRPRPRPTKVPRP | 0.126
RRIRFRPPRLPRPRPRPAMVPRP | -0.149
RRIRLRPPRLPRPRPRPVFTPRP | -0.135
RRIRARPPRLPRPRPRPYNCPRP | -0.0254
RRIRSRPPRLPRPRPRPECLPRP | 0.18
RRIRWRPPRLPRPRPRPPMAPRP | 0.598
RRIRPRPPRLPRPRPRPISNPRP | -0.408
RRIRKRPPRLPRPRPRPRIGPRP | 0.128
RRIRPRPPRLPRPRPRPIFTPRP | -0.0736
RRIRPRPPRLPRPRPRPVHLPRP | 0.179
RRIRYRPPRLPRPRPRPLCTPRP | -0.759
RRIRCRPPRLPRPRPRPDFVPRP | -0.196
RRIRQRPPRLPRPRPRPVENPRP | -0.0501
RRIRCRPPRLPRPRPRPYKPPRP | -0.705
RRIRPRPPRLPRPRPRPSVWPRP | -0.0905
RRIRERPPRLPRPRPRPCMLPRP | -0.241
RRIRYRPPRLPRPRPRPCADPRP | -0.21
RRIRIRPPRLPRPRPRPKWDPRP | -0.13
RRIRFRPPRLPRPRPRPFPPPRP | -0.123
RRIRNRPPRLPRPRPRPRIHPRP | -0.184

Sequence | shrunken log2 fold change
RRIRPRPPRLPRPRPRPYYTPRP | -0.379
RRIRSRPPRLPRPRPRPFDYPRP | -0.0792
RRIRFRPPRLPRPRPRPKIKPRP | -0.431
RRIRYRPPRLPRPRPRPHPYPRP | -0.449
RRIRHRPPRLPRPRPRPNHVPRP | -0.0341
RRIRNRPPRLPRPRPRPCNVPRP | -0.00963
RRIRPRPPRLPRPRPRPKQDPRP | 0.0659
RRIRYRPPRLPRPRPRPDVSPRP | -0.248
RRIRHRPPRLPRPRPRPPMNPRP | -0.543
RRIRKRPPRLPRPRPRPEHCPRP | 0.0607
RRIRKRPPRLPRPRPRPNLNPRP | -0.356
RRIRIRPPRLPRPRPRPKGKPRP | -0.162
RRIRCRPPRLPRPRPRPQPPPRP | 0.806
RRIRDRPPRLPRPRPRPATLPRP | -0.146
RRIRTRPPRLPRPRPRPIFKPRP | -0.128
RRIRSRPPRLPRPRPRPTMAPRP | 0.173
RRIRHRPPRLPRPRPRPLACPRP | 0.0188
RRIRSRPPRLPRPRPRPRDMPRP | 0.446
RRIRIRPPRLPRPRPRPTLQPRP | 0.00305
RRIRKRPPRLPRPRPRPYIPPRP | -0.651
RRIRYRPPRLPRPRPRPMYNPRP | -1.23
RRIRDRPPRLPRPRPRPWWIPRP | -0.0075
RRIRRRPPRLPRPRPRPCIWPRP | 0.0382
RRIRHRPPRLPRPRPRPSYFPRP | -0.628
RRIRPRPPRLPRPRPRPDQPPRP | -0.0572
